Our source for the Kd values is paper PMC2935386, “Dissecting the Relation between a Nuclear Receptor and GATA: Binding Affinity Studies of Thyroid Hormone Receptor and GATA2 on TSHβ Promoter”.

In series [1] the target is GATA2-Zf;TRβ1 DBD-LBD (TR DL, TRβ1ΔAB) (;human, UniProt P23769;P10828 291-412;102-461, |). Kind of series: fluorescence anisotropy; T3; Hill n 1±0.2; Fluorescence anisotropy: 10 nM DNA, 20 mM Hepes pH 8.0, 50 mM NaCl, 1 mM MgCl2, 3 mM DTT, 5% glycerol, 10°C; agarose gel 1.3% in 0.5x TBE. As to conditions: protein: recombinant;recombinant; tags: His, thrombin treated;His (pET28a); copies: 1;1; label: 5' fluorescein (FITC) on forward strand; blunt. For orientation: Fluorescence polarisation rises when a labelled molecule tumbles more slowly, as on binding a larger partner.

For series [2], the target named is T1, TRβ1 DBD-LBD (TR DL, TRβ1ΔAB);RXRα1 DBD-LBD (RXR DL, RXRα1ΔAB) (human;, UniProt P10828;P19793 102-461;126-462, |). Briefly: fluorescence anisotropy; T3; Hill n 1.8±0.1; Fluorescence anisotropy: 10 nM DNA, 20 mM Hepes pH 8.0, 50 mM NaCl, 1 mM MgCl2, 3 mM DTT, 5% glycerol, 10°C; agarose gel 1.3% in 0.5x TBE. As to conditions: protein: recombinant;recombinant; tags: His (pET28a);His (pET28a); copies: 1;1; label: 5' fluorescein (FITC) on forward strand; blunt.

Series [3] concerns the target T1, TRβ1 DBD-LBD (TR DL, TRβ1ΔAB);RXRα1 …. Kind of series: fluorescence anisotropy; T3; Hill n 3.7±1; text refers to previous studies [36],[37] but listed in this paper's Table 1 and Fig. 2; Fluorescence anisotropy: 10 nM DNA, 20 mM Hepes pH 8.0, 50 mM NaCl, 1 mM MgCl2, 3 mM DTT, 5% glycerol, 10°C; agarose gel 1.3% in 0.5x TBE. As to conditions: protein: recombinant;recombinant; tags: His (pET28a);His (pET28a); copies: 1;1; label: 5' fluorescein (FITC) on forward strand; blunt.

In general, Kd refers to a measure of binding affinity in units of concentration.

T1 sequence (P10828 102-461, stated change not applied, chain 1 of 2): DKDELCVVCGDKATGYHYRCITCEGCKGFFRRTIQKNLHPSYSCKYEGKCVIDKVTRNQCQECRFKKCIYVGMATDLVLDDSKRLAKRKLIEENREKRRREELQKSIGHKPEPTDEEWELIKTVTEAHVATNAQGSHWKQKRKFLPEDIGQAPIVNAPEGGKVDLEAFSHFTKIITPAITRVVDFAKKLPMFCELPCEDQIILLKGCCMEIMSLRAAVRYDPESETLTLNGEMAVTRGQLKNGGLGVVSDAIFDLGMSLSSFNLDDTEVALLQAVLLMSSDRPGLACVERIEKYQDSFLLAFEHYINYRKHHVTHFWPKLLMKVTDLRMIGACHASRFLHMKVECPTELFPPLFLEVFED
T1 sequence (P19793 126-462, stated change not applied, chain 2 of 2): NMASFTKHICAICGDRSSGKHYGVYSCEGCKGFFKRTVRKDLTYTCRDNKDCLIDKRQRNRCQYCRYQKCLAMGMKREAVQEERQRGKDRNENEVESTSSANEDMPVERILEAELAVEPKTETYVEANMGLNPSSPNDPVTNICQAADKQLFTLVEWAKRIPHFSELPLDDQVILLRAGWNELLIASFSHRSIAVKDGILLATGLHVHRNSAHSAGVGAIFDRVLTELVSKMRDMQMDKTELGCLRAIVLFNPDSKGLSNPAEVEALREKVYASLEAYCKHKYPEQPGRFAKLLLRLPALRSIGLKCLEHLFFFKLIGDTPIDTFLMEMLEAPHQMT
Sequence of GATA2-Zf;TRβ1 DBD-LBD (TR DL, TRβ1ΔAB) (P23769 291-412, stated change not applied, chain 1 of 2): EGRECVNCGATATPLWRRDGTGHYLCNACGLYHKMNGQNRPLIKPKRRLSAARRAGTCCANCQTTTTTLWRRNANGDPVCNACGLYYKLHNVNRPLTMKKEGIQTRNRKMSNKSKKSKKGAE
Sequence of GATA2-Zf;TRβ1 DBD-LBD (TR DL, TRβ1ΔAB) (P10828 102-461, stated change not applied, chain 2 of 2): as the sequence (P10828 102-461, stated change not applied, chain 1 of 2) above

B1: TSH GATA-RE (dsDNA)
DNA 1: TCAATAGATGCTTTTCAGATAAGAA
DNA 2: TTCTTATCTGAAAAGCATCTATTGA
Regarding B1, in series [1], the Kd was 38.6 ± 7.9 nM.

B2: GATA-RE (canonical) (dsDNA)
DNA 1: CACTTGATAACAGAAAGTGATAACTCT
DNA 2: AGAGTTATCACTTTCTGTTATCAAGTG
For the molecule B2, in series [1], the Kd was 140 ± 29.8 nM.

B3: TSH NRE (dsDNA)
DNA 1: TGGGTCACCACAGCATCTGCTCACCAATGCAAAGT
DNA 2: ACTTTGCATTGGTGAGCAGATGCTGTGGTGACCCA
As to B3, in series [2], the Kd came to 720 ± 19 nM.

B4: DR4 TRE (dsDNA)
DNA 1: AGTTCAGGTCACAGGAGGTCAGAG
DNA 2: CTCTGACCTCCTGTGACCTGAACT
For the molecule B4, the Kd in series [3] came to 39.4 ± 2.2 nM.
